Source: the nanobody polyreactivity screen of Harvey et al. (2022)

Test: yeast display, Sf9 membrane polyspecificity reagent, FACS + sequencing; frameworks hold sequencing errors
How it was run: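 Synthetic nanobody libraries on Saccharomyces cerevisiae BJ5465 were galactose-induced for 36–48 hours, stained 1 hour at 4 °C with 10% biotinylated, detergent-solubilized Sf9 membrane reagent and enriched on streptavidin microbeads. FACS then separated cells into low and high (top ~1%) gates by anti-HA (expression) and streptavidin (reagent binding) fluorescence. Genes were colony-PCR amplified, MiSeq 2 × 250 sequenced and CDR-length filtered. A clone's polyreactivity label is that of its gate of origin.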

QVQLVESGGGLVQAGGSLRLSCAASGSTFKIYVMGWYRQAPGKERELVAAISWSGGRTFYADSVKGRFTISRDNAKNTVYLQMNSLKPEDTAVYYCAARWQRYRSGTGDYWGQGTQVTVSS
polyreactivity (PSR sort gate): high polyreactivity

QVQLVESGGGLVQAGGSLRLSCAASGSTFKKNAMGWYRQAPGKERELVAAISGIGTRTSYADSVKGRFTISRDNAKNTVYLQMNSLKPEDTAVYYCAARYYGFPSTLKYDYWGQGTQVTVSS
polyreactivity (PSR sort gate): high polyreactivity

QVQLVESGGGLVQAGGSLRLSCAASGSTFKKNAMGWYRQAPGKERELVAAISKRGGRTYYADSVKGRFTISRDNAKNTVYLQMNSLKPEDTAVYYCNAGQQHFDEEEYDYWGQGTQVTVSS
polyreactivity (PSR sort gate): high polyreactivity

QVQLVESGGGLVQAGGSLRLSCAASGSTFKKYAIGWYRQAPGKERELVAAITWTGGSTYYADSVKGRFTISRDNAKNTVYLQMNSLKPEDTAVYYCAAYKTYAVKYYWGQGTQVTVSS
polyreactivity (PSR sort gate): high polyreactivity

QVQLVESGGGLVQAGGSLRLSCAASGSTFKKYAMGWYRLAPGKERELVAAITGSGGRTYYADSVKGRFTISRDNAKNTVDLQMNSLKPEDTAVYYCAKLNNYGYDYWGQGTQVTVSS
polyreactivity (PSR sort gate): high polyreactivity

QVQLVESGGGLVQAGGSLRLSCAASGSTFKLYVMGLYRPAPGKERELVAAIDWSGGSTYYADSVKGRFTISRDNAKNTVYLQMNSLTPEDTAVYYCAADSPNSWRMDYWGQGTQVTVSS
polyreactivity (PSR sort gate): low polyreactivity

QVQLVESGGGLVQAGGSLRLSCAASGSTFKQYTMGWYRQATGKERELVAAINRGGTSTNYADSVKGRFTISRDNAKNTVYLQMNSLKPEDTAVYYCNAGYSWGRYYYWGQGTQVTVSS
polyreactivity (PSR sort gate): low polyreactivity

QVQLVESGGGLVQAGGSLRLSCAASGSTFKRNAMGWYRQAPGKERELVAAISSSGGRTYYADSVKGRFTISRDNAKNTVYLQMNSLKPEDTAVYYCAAGIRTSAGYDYWGQGTQVTVSS
polyreactivity (PSR sort gate): high polyreactivity

QVQLVESGGGLVQAGGSLRLSCAASGSTFKRNAMGWYRQAPGKERELVAAISWSGGSTYYADSVKGRFTISRDNAKNTVYLQMNSLKPEDTAVYYCNADHPFPQYEGGSWGQGTQVTVSS
polyreactivity (PSR sort gate): low polyreactivity

QVQLVESGGGLVQAGGSLRLSCAASGSTFKRNAMGWYRQAPGKERELVATITRRGGSTYADSVKGRFTISRDNAKNTVYLQMNSLKPEDTAVYYCARDGFSAGMDYWGQGTQVTVSS
polyreactivity (PSR sort gate): low polyreactivity

QVQLVESGGGLVQAGGSLRLSCAASGSTFKRNAMGWYRQAPGNERELVAAITDNTSTTFYADSVKGRFTISRDNAKNTVYLQMNSLKPEDTAVYYCAADHSGGSRYDYWGQGTQVTVSS
polyreactivity (PSR sort gate): low polyreactivity

QVQLVESGGGLVQAGGSLRLSCAASGSTFKRNARGWYRQAPGKERELVASISKRGGSTYYADSVKGRFTISRDNAKNTVYLQMNSLIPEDTAVYYCAKTWQNGDRNTIGSVYAYDYWGQGTQVTVSS
polyreactivity (PSR sort gate): high polyreactivity

QVQLVESGGGLVQAGGSLRLSCAASGSTFKRYAMGWYRQAPGKERELVAAITSGSSTYYADSVKGRFTISRDNAKNTVYLQMNSLKPEDTAVYYCAARRAGAKYYLYGYDYWGQGTQVTVSS
polyreactivity (PSR sort gate): low polyreactivity

QVQLVESGGGLVQAGGSLRLSCAASGSTFKRYAMGWYRQAPGKERELVASISQRGGTTYYADSVKGRFTISRDNAKNTVYLQKNSLKPEDTAVYYCAKGFGWTRTIYDYWGQGTQVTVSS
polyreactivity (PSR sort gate): high polyreactivity

QVQLVESGGGLVQAGGSLRLSCAASGSTFKSYAKGWYRQAPGKEREFVAAIRGNGARTYYADSVKGRITISRDNAKNTVYFQMNSLKPEDTAVYYCNAVRYSFSDSSVDYWGQGTQVTVSS
polyreactivity (PSR sort gate): high polyreactivity

QVQLVESGGGLVQAGGSLRLSCAASGSTFKSYAMGWYRQAPGKERELVAAISYRGGSTYYADSVKGRFTISRDNAKNTVYLQMNSLKPEDTAVYYCAAVKLYSYYYWGQGTQVTVSS
polyreactivity (PSR sort gate): high polyreactivity

QVQLVESGGGLVQAGGSLRLSCAASGSTFKSYAMGWYRQAPGKERELVAAITHRGSTYYADSVKGRFTISRDNAKNTVDLQMNSLKPEDTAVYYCNVRRIGNGRRVDYWGQGTQVTVSS
polyreactivity (PSR sort gate): high polyreactivity

QVQLVESGGGLVQAGGSLRLSCAASGSTFKSYAMGWYRQAPGKERELVAAITRGGSTNYADSVKGRFTISRDNAKNTVYLQMNSLKPEDTAVYYCAKTYRYRTMDYWGQGTQVTVSS
polyreactivity (PSR sort gate): low polyreactivity

QVQLVESGGGLVQAGGSLRLSCAASGSTFKWNAMGWYRQAPGKERELVAAISKGSVNTYYADSVKGRFTISRDNAKNTVYLQMNSLKPEDTAVYYCAADRRYPALDYRGQGTQVTVSS
polyreactivity (PSR sort gate): high polyreactivity

QVQLVESGGGLVQAGGSLRLSCAASGSTFKYYAMGWYRQAPGKERELVAAISYRGGRTYYADSVKGRFTISRDNAKNTVNLQMNSLKPEDTAVYYCAAVKPYYIQYQGSAGYDYWGQGTQVTVSS
polyreactivity (PSR sort gate): high polyreactivity

QVQLVESGGGLVQAGGSLRLSCAASGSTFKYYAMGWYRQAPGKERELVASITRTGSSTYYADSVKGRFTISRDNAKNTVYLQMNSLKPEDTAVYFCNTGPHSVWWHYGYDYWGQGTQVTVSS
polyreactivity (PSR sort gate): high polyreactivity

QVQLVESGGGLVQAGGSLRLSCAASGSTFKYYAMGWYSQAPGKERELVAAISKGATRTYYADSVKGRFTISRDTAKNTVYLQMNSLKPEDTAVYYCAADRLKFPGEYDYWGQGTQVTVSS
polyreactivity (PSR sort gate): high polyreactivity

QVQLVESGGGLVQAGGSLRLSCAASGSTFLDNAMGWYRQAPGKETELVAAITQSGSSTYYADSVKGRFTISRDNAKNTVYLQMNSLKPEDTAVYYCAADVPNISFDYWGQGTQVTVSS
polyreactivity (PSR sort gate): low polyreactivity

QVQLVESGGGLVQAGGSLRLSCAASGSTFLFYAMGWYRQAPGKEREFVAAITWSGGSTYYADSVKGRFTISRDNAKNTVYLQMNSLKPEDTAVYYCNGYYVPTTGREFYFAFYYWGQGTQVTVSS
polyreactivity (PSR sort gate): low polyreactivity

QVQLVESGGGLVQAGGSLRLSCAASGSTFLFYTMGWYRQAPGKERELVAAINSGGSTNYADSVKGRFTISRDNAKNTVYLQMNSLKPEDTAVYYCNADRTYVYKYTYSFYYWGQGTQVTVSS
polyreactivity (PSR sort gate): low polyreactivity

QVQLVESGGGLVQAGGSLRLSCAASGSTFLGNVMGWYRQAPGKERELVAAITSTGGNTYYADSVKGRFTISRDNAKNSVYLQMNSLKPEDTAVYYCAKKYVWTHNYWGQGTQVTVSS
polyreactivity (PSR sort gate): low polyreactivity

QVQLVESGGGLVQAGGSLRLSCAASGSTFLIKAMGWYRQAPGKEREVVASIRYRGATTYADSVKGRFTISRDNAKNTVYLQLKSLKPEDTAVYYCAAVHWRYQYSLRYDYWGQGTQVTVSW
polyreactivity (PSR sort gate): high polyreactivity

QVQLVESGGGLVQAGGSLRLSCAASGSTFLINVLGWYRQAPGKERELVARISWRAATTYYADSVKGRFTISRDNAKNTVYLPMYSLQPEDTAVYYCADDLYKRGFDYWGQGTQVTVSS
polyreactivity (PSR sort gate): low polyreactivity

QVQLVESGGGLVQAGGSLRLSCAASGSTFLKYAMGWYKHAPWKERELVAAITYRGGTTYYADSVKGRFTISRDNAKNSVYFQMNSLKPVDTAVYYCNARRDYDMDWGQGTLVTVSS
polyreactivity (PSR sort gate): high polyreactivity

QVQLVESGGGLVQAGGSLRLSCAASGSTFLKYAMVWYRQAPGKERELVAAITSDGTTYADSVKGRFTISRDNAKNTVYLQMNSLKPEDTAVYYCAKDYRHPTFDYWGQGTQVTVSS
polyreactivity (PSR sort gate): low polyreactivity

QVQLVESGGGLVQAGGSLRLSCAASGSTFLKYDMGWYRQAPGKERELVAAISWDGGSTYYADSVKGRFTISRDNAKNTVYLQMNSLKPEDTAVYYCNADYDVYLTIWYYYGEFDYWGQGTQVTVSS
polyreactivity (PSR sort gate): low polyreactivity

QVQLVESGGGLVQAGGSLRLSCAASGSTFLLNTMGWYRQAPGKERELVAVINSDDSTYYADSVKGRFTISRDNAKNTVYLQMNSLKPEDTAVYYCAAEPQYTRHMDSWGQGTQVTVSS
polyreactivity (PSR sort gate): low polyreactivity

QVQLVESGGGLVQAGGSLRLSCAASGSTFLLYDMGWYRQAPGKERELVAAITWSGGSTYYADSVKGRFTISRDNAKNTVYLQMNSLKPEDTEVYYCAADSLGDRYYYWGQGTQVTVSS
polyreactivity (PSR sort gate): low polyreactivity

QVQLVESGGGLVQAGGSLRLSCAASGSTFLNNAMGWYRQAPGKERELVATITSGGITNYADSVKGRFTISRDNEKNTVYLQMNSLKPEDTAVYYCNADTWGFTYYYWGQGTQVTVSS
polyreactivity (PSR sort gate): low polyreactivity

QVQLVESGGGLVQAGGSLRLSCAASGSTFLNYAMGWYRQAPGKERELVAAISFSGGRTYYADSVKGRFTISRDIAKNTVYLQMNSLKPEDTAVYYCGAGGWRGHYYCGQGTQVTVSS
polyreactivity (PSR sort gate): high polyreactivity

QVQLVESGGGLVQAGGSLRLSCAASGSTFLPYAMGWYRQAPGKERELVAAIDWNGGRTYYADSVKGRFTISRDNAKNTVYLQMNSLKPEDTAVYYCAKLGRAAQGNYYWGQGTQVTVSS
polyreactivity (PSR sort gate): high polyreactivity

QVQLVESGGGLVQAGGSLRLSCAASGSTFLPYAMGWYRQAPGKERELVAAITWRTGSTYYADSVKGRFTISRDNAKNTVYLQMNSLKPEDTAVYYCNAKQRGKFDYWGQGTQVTVSS
polyreactivity (PSR sort gate): low polyreactivity

QVQLVESGGGLVQAGGSLRLSCAASGSTFLRNAMGWYRQAPGKEWELVATISTGSGRTYYADSVKGRFTISRDNAKNTVYLQMHSLKPEDTAVYYCAASRTLRKHRYEYWGQGTQVTVSS
polyreactivity (PSR sort gate): high polyreactivity

QVQLVESGGGLVQAGGSLRLSCAASGSTFLRNVMGWYRQAPGKERELVAAISSRGGSTHYADSVQGRFTISRDNAKHTVYLQMNSLKPEDTAVYYCNAERTAAQYVRAAYDYWGLGTQVTVSS
polyreactivity (PSR sort gate): low polyreactivity

QVQLVESGGGLVQAGGSLRLSCAASGSTFLTNAMGWYRQAPGKERELVAAIRTSGGSTYYADSVKGRFTSSRDNAKKTVYVLMNSLKPEDTAVYYCAASYRRRRFSEYYYWGQGTQVTVAS
polyreactivity (PSR sort gate): high polyreactivity

QVQLVESGGGLVQAGGSLRLSCAASGSTFLTYAMGWYRQAPGKERELVAGISYSTGSTYYADSVKGRFTISRDNAKNTVYLQMHSLKPEDTAVYYCAADEWDGLRYYYYFNYEYWGQGTQVTVSS
polyreactivity (PSR sort gate): low polyreactivity

QVQLVESGGGLVQAGGSLRLSCAASGSTFLTYAMGWYRQAPGKERELVASISRSGSTNYADSVKGRFTISRDNAKNTVYLQLNSLKPEDTAVYYCAADHTRYSSSWYYKQYYYWGQGTQVTVSS
polyreactivity (PSR sort gate): low polyreactivity

QVQLVESGGGLVQAGGSLRLSCAASGSTFLVYAMGWYRQAPGKEMEFVAAISWSGGSTFYADSVKGRFTISRDNAKNTVYLQMNSLKPVDTAVYYCAARQAGYSGRKLYYWGQGTQVTVSS
polyreactivity (PSR sort gate): low polyreactivity
